Reference: US20200407447A1 (CEINGEBIOTECNOLOGIE AVANZATE FRANCO SALVATORE SCARL, published 2020)

Columns and labels:
[1] = molecular target: T1, human PD-1/Fc recombinant chimeric protein (R&D Systems) (human, UniProt Q15116 25-167); assay: ELISA on coated recombinant PD-1/Fc, mAb at increasing concentrations (apparent Kd, legend paragraph 26) [continued]
T1 construct: Bought from R&D Systems; also called rhPD-1; recombinant protein/Fc
Experimental: (§1) FIG. 2: Binding affinity of the selected antibodies for lymphocytes. The ELISA assays were performed with mAbs used at increasing concentrations (7.5 nM, 25 nM, 50 nM, 100 nM) on activated hPBMCs (black curves) or untreated hPBMCs (grey curves).
(§2) To confirm the binding specificity of the purified mAbs, ELISA assays were performed on chimeric proteins (coated at 5 μg/ml), tumor cells (PD-L1-positive breast cancer MDA-MB-231 cells or PD-L1-negative breast cancer MCF7), and untreated or activated hPBMCs. The ELISA assays on coated chimeric protein were performed by coating Nunc™ flat-bottom 96-well plates (Fisher Scientific, Thermo Fisher Scientific) with 5 μg/ml […], […] and rhLAG-3 recombinant proteins in a solution of 0.05 M NaHCO₃ for 72 hours at 37° C. […] After extensive washes with PBS, the plates were incubated with (HRP)-conjugated anti-human IgG (Fab′)2 goat monoclonal antibody (Abcam, Cambridge, UK) for 1 hour, washed again and incubated with TMB reagent for 10 min before quenching with an equal volume of 1N HCl.

[2] = molecular target: T2, human PD-1 on activated hPBMCs (human, UniProt Q15116 25-288); assay: cell ELISA on activated hPBMCs (apparent Kd, legend paragraph 26) [continued]
T2 construct: whole, on cells; also called cognate receptor expressed on hPBMCs
T2 sequence (Q15116 25-288): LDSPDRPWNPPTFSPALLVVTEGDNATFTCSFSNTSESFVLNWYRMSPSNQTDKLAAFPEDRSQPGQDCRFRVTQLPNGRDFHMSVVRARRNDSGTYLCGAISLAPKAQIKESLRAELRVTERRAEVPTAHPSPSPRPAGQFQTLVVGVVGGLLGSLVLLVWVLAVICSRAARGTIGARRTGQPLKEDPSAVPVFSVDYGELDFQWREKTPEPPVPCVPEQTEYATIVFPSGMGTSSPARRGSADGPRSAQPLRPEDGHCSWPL
Experimental: as §1
(§3) Plates were then centrifuged, cell pellets were washed with PBS and incubated with HRP-conjugated anti-human IgG goat polyclonal antibody for 1 hour at room temperature. Following additional washes in PBS 1×, TMB reagent was added for 10 min before quenching with an equal volume of 1N HCl. Absorbance at 450 nm was measured by the Envision plate reader (Perkin Elmer, Waltham, Mass., USA).

[3] = molecular target: T3, human LAG-3/Fc recombinant chimeric protein (R&D Systems) (human, UniProt P18627 23-450); assay: ELISA on coated recombinant LAG-3/Fc, mAb at increasing concentrations (apparent Kd, legend paragraph 26)
T3 construct: Bought from R&D Systems; also called rhLAG-3; recombinant protein/Fc
T3 sequence (looked up): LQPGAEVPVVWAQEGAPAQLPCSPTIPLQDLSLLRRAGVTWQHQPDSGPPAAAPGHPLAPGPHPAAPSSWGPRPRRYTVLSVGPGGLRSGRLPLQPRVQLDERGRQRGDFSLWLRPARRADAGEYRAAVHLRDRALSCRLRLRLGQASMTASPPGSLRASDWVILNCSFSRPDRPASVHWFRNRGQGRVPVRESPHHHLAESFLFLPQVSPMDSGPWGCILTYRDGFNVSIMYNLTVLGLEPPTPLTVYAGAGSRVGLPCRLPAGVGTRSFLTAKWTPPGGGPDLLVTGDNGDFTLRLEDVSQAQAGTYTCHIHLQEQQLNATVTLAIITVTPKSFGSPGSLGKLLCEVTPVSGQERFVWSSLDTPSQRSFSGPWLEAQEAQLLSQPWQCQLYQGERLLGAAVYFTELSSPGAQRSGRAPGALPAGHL
Experimental: as §1, §2

[4] = molecular target: T4, human LAG-3 on activated hPBMCs (human, UniProt P18627 23-525); assay: cell ELISA on activated hPBMCs (apparent Kd, legend paragraph 26)
T4 construct: whole, on cells; also called cognate receptor expressed on hPBMCs
T4 sequence (looked up): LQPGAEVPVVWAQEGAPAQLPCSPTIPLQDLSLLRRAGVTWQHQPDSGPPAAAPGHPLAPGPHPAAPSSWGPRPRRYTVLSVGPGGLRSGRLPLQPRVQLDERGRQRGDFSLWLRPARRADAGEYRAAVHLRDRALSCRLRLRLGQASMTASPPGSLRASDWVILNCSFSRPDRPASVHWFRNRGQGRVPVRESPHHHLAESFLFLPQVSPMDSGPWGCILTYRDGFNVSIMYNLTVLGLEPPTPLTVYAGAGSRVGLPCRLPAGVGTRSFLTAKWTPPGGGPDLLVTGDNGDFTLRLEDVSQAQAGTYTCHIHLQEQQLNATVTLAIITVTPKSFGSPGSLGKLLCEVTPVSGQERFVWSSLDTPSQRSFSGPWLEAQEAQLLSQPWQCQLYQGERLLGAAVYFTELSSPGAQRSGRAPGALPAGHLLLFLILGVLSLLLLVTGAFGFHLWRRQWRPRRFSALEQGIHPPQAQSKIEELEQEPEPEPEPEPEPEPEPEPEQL
Experimental: as §1, §3

[5] = molecular target: T5, human PD-L1 on cells (activated hPBMCs; MDA-MB-231 tumor cells) (human, UniProt Q9NZQ7 19-290); assay: flow cytometry on hPBMCs activated with anti-CD3/CD28 beads, MFI against IgG concentration
T5 construct: whole, on cells; also called PD-L protein
T5 sequence (Q9NZQ7 19-290): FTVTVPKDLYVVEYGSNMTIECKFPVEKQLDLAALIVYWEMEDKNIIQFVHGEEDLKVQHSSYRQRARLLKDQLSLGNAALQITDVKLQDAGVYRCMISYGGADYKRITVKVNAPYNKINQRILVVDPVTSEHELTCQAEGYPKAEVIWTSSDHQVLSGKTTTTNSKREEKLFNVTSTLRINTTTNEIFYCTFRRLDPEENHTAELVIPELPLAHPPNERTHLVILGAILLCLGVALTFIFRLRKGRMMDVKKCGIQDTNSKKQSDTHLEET
Experimental: Human PBMCs isolated from healthy donors were activated with anti-CD3/CD28 beads to stimulate PD-L1 expression.
The human peripheral blood mononuclear cells (hPBMCs) isolated from healthy donors were thawed in RPMI 1640 medium (Gibco), supplemented with 2 mM L-glutamine, 10% (v/v) CTL wash supplement (CTL, Shaker Heights, Ohio, USA), 100 U/ml Benzonase (Merck Millipore, Burlington, Mass., United States). After centrifugation at 1200 rpm for 10 min, they were resuspended in complete RPMI medium supplemented with 10% (v/v) heat-inactivated fetal bovine serum (FBS, Sigma), 2 mM L-glutamine, 100 U/ml penicillin and 100 µg/ml streptomicin (Gibco), HEPES 10 mM (Gibco). After resting for 16 h at 37° C. in a humidified atmosphere with 5% CO2, hPBMCs were counted, resuspended at a concentration of 10\hat{ }6 viable cells/ml in complete RPMI medium (as above) and activated with Dynabeads Human T-Activator CD3/CD28 (Gibco), 25 μl beads/10\hat{ }6 viable cells. 24 h post activation, the cells were centrifuged and plated at 4×10\hat{ }5 cells/well in PBS in a 96 well plate with round bottom. After one wash in PBS, they were incubated with 50 μl LIVE/DEAD™ Fixable Violet Dead Cell Stain (Invitrogen) for 30 min at +4° C. and washed once again.

[6] = molecular target: T5, human PD-L1 on cells (activated hPBMCs; …); assay: cell ELISA on MDA-MB-231 tumor cells expressing PD-L1 (apparent Kd) [continued]
Experimental: as §3

[7] = molecular target: T5, human PD-L1 on cells (activated hPBMCs; …); assay: cell ELISA on activated hPBMCs (apparent Kd, legend paragraph 26) [continued]
Experimental: as §1, §3

[8] = molecular target: T6, human PD-L1/Fc recombinant chimeric protein (R&D Systems) (human, UniProt Q9NZQ7 19-239); assay: ELISA on coated recombinant PD-L1/Fc, mAb at increasing concentrations (apparent Kd, legend paragraph 26) [continued]
T6 construct: Bought from R&D Systems; also called recombinant protein/Fc
T6 sequence (Q9NZQ7 19-239, change not shown): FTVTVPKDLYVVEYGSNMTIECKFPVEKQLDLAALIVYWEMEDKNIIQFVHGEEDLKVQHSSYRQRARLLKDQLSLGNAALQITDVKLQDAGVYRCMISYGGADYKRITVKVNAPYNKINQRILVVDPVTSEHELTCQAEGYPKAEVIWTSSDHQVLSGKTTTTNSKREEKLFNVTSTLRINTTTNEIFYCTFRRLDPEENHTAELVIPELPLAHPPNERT
Experimental: as §1, §2

T1 sequence (Q15116 25-167, change not shown): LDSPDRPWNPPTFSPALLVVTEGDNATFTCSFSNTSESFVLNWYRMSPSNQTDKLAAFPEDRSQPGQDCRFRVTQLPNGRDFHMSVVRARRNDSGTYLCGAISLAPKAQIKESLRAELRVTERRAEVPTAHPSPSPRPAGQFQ

B1: PD-1_B (antibody, V domains shown)
VH: QVQLVQSGAEVKKPGASVKVSCKASGYTFTSYGISWVRQAPGQGLEWMGWISAYNGNTNYAQKLQGRVTMTTDTSTSTAYMELRSLRSDDTAVYYCARDFGSGSYYDLDYWGQGTMVTVSS
VL: ANFMLTQPHSVSESPGKTVTISCTGSSGSIASNYVQWYQQRPGSAPTTVIYEDNQRPSGVPDRFSGSIDSSSNSASLTISGLKTEDEADYYCQSYDSNNHWVFGGGTKLTVL
notes: also called mAb PD-1_B
[1]
  Kd: 0.29 nM
[2]
  Kd: 0.6 nM

B2: PD-1_A (antibody, V domains shown)
VH: QVQLQESGPGVVKPSGTLSLTCAISGGSIGSGGSIRSTRWWSWVRQSPGKGLEWIGEIYHSGSTNYNPSLKSRVTISLDKSRNHFSLRLNSVTAADTAVYYCARQDYGDSGDWYFDLWGKGTLVTVSS
VL: AQAVLTQPSSVSGAPGQRVTISCTGSSSNIGAGYDVHWYQQLPGTAPKLLIYGNNNRPSGVPDRFSGSKSGTSASLAITGLQTEDEADYYCQSYDNSLSGEVFGGGTKVTVL
notes: also called mAb PD-1_A; anti-PD-1 antibody PD-1_A
[1]
  Kd: 0.15 nM
[2]
  Kd: 0.14 nM

B3: LAG-3_D (antibody, V domains shown)
VH: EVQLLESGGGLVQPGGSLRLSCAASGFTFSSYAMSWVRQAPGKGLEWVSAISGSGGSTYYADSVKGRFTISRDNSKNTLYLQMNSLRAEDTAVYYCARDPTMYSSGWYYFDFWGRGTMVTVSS
VL: ALSYVLTQPPSVSEAPRQRVTISCSGSSSNIGNNAVNWYQQLPGKAPKLLIYYDDLLPSGVSDRFSGSKSGTSASLAISGLQSEDEADYYCATWDDSLNGQVFGTGTKLTVL
[3]
  Kd: 24 nM
[4]
  Kd: 19 nM

B4: LAG-3_C (antibody, human IgG4, V domains shown)
VH: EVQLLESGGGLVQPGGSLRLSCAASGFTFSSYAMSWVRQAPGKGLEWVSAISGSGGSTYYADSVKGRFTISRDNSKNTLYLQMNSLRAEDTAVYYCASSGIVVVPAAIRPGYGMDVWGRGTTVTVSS
VL: AQAVLTQPSSVSGAPGQRVTISCTGSSSNIGAGYDVHWYQQLPGTAPKLLIYGNNNRPSGVPDRFSGSKSGTSASLAITGLQPEDEADYYCQSYDFGLSRVFGGGTKLTVL
notes: also called mAb LAG-3_C
[3]
  Kd: 52 nM
[4]
  Kd: 2.6 nM

B5: PD-L1_E (antibody, V domains shown)
VH: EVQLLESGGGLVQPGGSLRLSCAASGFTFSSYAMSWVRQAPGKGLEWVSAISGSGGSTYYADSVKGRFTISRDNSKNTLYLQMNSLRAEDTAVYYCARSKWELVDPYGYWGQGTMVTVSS
VL: ANFMLTQPHSVSESPGKTITISCTRSSGSIAGNYVQWYQQRPGSAPIIVIYEDNQRPSGVPDRFSGSIDSSSNSASLTISRLKTEDEADYYCQSYEASNVVFGGGTKLTVL
notes: Tested as a mAb detected with anti-human IgG Fc
[5]
  binding result: binds

B6: PD-L1_C (antibody, V domains shown)
VH: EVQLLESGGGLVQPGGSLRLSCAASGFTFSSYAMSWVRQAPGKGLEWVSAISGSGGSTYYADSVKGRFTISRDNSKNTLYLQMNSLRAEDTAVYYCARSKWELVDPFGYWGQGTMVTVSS
VL: ANFMLTQPHSVSESPGKTITISCTRSSGSIAGNYVQWYQQRPGSAPIIVIYEDNQRPSGVPDRFSGSIDSSSNSASLTISRLKTEDEADYYCQSYEASNVVFGGGTKLTVL
notes: as for B5
[5]
  EC50 (read off the curve): ~2 nM

B7: LAG-3_A (antibody, human IgG4, V domains shown)
VH: EVQLLESGGGLVQPGGSLRLSCAASGFTFSSYAMSWVRQAPGKGLEWVSAISGSGGSTYYADSVKGRFTISRDNSKDTLYLQMNSLRAEDTAVYYCARDGPLYDISAGFVPISYYLDYWGQGTTVTVSS
VL: AQPVLTQPPSASGTPGQRVTISCSGSFSNIGSNYVFWYQQLPGTAPKLLISGNNQRPSGVPDRFSGSKSGTSASLAISGLRSQDEADYYCATWDDSLRGWVFGGGTKLTVL
notes: also called mAb LAG-3_A
[3]
  Kd: 38 nM
[4]
  Kd: 6 nM

B8: PD-L1_B (antibody, V domains shown)
VH: QVQLVQSGAEVKKPGSSVEVSCKVSGNTVIGYAVSWVRQAPGQGPEWMGRLIPSVGLTNYAQKFQDRLTFTADTSTSTVTMALSSLTSEDTAMYYCARDVSPAVPVSQYWGQGTLVTVSS
VL: AQSVLTQPPSVSAAPGQKVIISCSGDSFNIGSHSVSWYKQLPGSAPKLLIYENNVRPSGIPDRFSGSKSGTSATLGITGLQTRDEADYYCGAWDSSLNGHWVFGGGTQLTVL
notes: also called mAb PD-L1_B
[6]
  Kd: 0.74 nM
[7]
  Kd: 0.1 nM
[8]
  Kd: 0.46 nM
